Data on 29 molecules can be found in patent publication US7056679 (ANTYRA, dated 2006).

Common to all, as to experiment: phage ELISA
The target of experiment [1] is T1, lactate dehydrogenase (LDH).
T1 construct: Coated at 500 ng/well as non-specific target; also called LDH polypeptide
As to the method:
(§1) For analysis of individual target binders, colonies were picked and phage prepared as described above using helper phage, M13KO7. Ninety-six-well microtiter plates were coated with 500 ng/well of specific target protein, 500 ng/well lactate dehydrogenase (LDH) irrelevant or non-specific target, 500 ng/well of positive control antibody raised against ETAG, and negative control of non-fat milk powder-PBS 2% at 4° C. overnight. Plates were then blocked with 350 microliters/well PBS containing 2% non-fat milk for 1 hr at room temperature. One hundred microliters per well of phage from isolated clones were added and plates were incubated at room temperature for 2 hr after centrifuging samples for 20 minutes at 3500 rpm at 4° C. The phage solution was then removed, and the wells were washed three times with PBS at room temperature. Antibody raised against M13 conjugated to horseradish peroxidase (Pharmacia) was diluted 1:3000 in PBS-Tween and added to each well (100 µl/well). Incubation was for 1 hr at room temperature, followed by washing with PBS-(0.5%) Tween 3 times as described. Color was developed by addition of ABTS solution (100 µl/well; Boehringer, Indianapolis, Ind.). Plates were analyzed at 405 nm. A clone was considered "positive" if the $A405$ of the well was $\geq$2-fold over background.

In experiment [2] the target is T2, antibody raised against ETAG.
T2 construct: Coated at 500 ng/well; also called E-tag antibody
As to the method:
as §1

Another experiment addresses T3, DGI-2 polypeptide (UniProt Q15004 1-111, limits assumed).
T3 construct: Soluble recombinant protein coated at 500 ng/well; vector tag of pIVEX2.3-MCS not described for this construct; also called KIAA0101
T3 sequence (looked up): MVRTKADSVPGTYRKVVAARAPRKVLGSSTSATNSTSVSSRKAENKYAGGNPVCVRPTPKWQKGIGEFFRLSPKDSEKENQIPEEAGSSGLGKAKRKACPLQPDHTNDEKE
How it is done:
as §1

On to FGRDGDGIQRRQGGFSWVGDRAAAGAPVPYPDPLEPRP [DGI-2-20F-PP-E2], for which, in experiment [1], the “LDH (OD)” value turned out to be 0.7 OD. Moreover, the “ETAG (OD)” value in experiment [2] came out at 11.6 OD. In the experiment with DGI-2 polypeptide, the “DGI-2 (OD)” value worked out at 1.7 OD and the DGI-2/LDH is 2.4 ratio.
The like results for GWSDFVATGSWSGQVSAALNAAAGAPVPYPDPLEPRP [DGI-2-20R-4-F120] were, in that order, 1.1 OD, 16.5 OD, 13.6 OD and 12.2 ratio.
On to SRGMAEAQFSAWPVLAVFPLAAAGAPVPYPDPLEPRP [DGI-2-20F-PP-H8], for which the “LDH (OD)” value in experiment [1] was found to be 0.9 OD. In experiment [2], the “ETAG (OD)” value was 32.4 OD. Besides, in the experiment with DGI-2 polypeptide, the “DGI-2 (OD)” value is 1.6 OD and the DGI-2/LDH was determined as 1.9 ratio.
Take LLLPVRWRDAQPRSLLMEWIAAAGAPVPYPDPLEPRP [DGI-2-20F-PP-F8]: in experiment [1], the “LDH (OD)” value was 1.1 OD. For the same molecule, the “ETAG (OD)” value in experiment [2] was 7.6 OD. Also, in the experiment with DGI-2 polypeptide, the “DGI-2 (OD)” value amounted to 2 OD and the DGI-2/LDH was 1.9 ratio.
The like results for FRVALLSVSAGPCEGSGNTAAAGAPVPYPDPLEPRP [DGI-2-20F-PP-H7] were, in that order, 0.8 OD, 3.7 OD, 1.8 OD and 2.1 ratio.
The corresponding values for VWRDWVNGTVGLRNREKPGVAAAGAPVPYPDPLEPRP [DGI-2-20R-3-A5] are 1.1 OD, 14.9 OD, 10.9 OD and 9.8 ratio.
The corresponding values for RRGVCEIFTGWCVGQTNERPAAAGAPVPYPDPLEPRP [DGI-2-20R-4-H626] are 1.1 OD, 13.5 OD, 9.6 OD and 8.8 ratio.
As for RTLFINGGCCGKGSGGGRPLAAAGAPVPYPDPLEPRP [DGI-2-20F-PP-G1], in experiment [1], the “LDH (OD)” value is 1 OD. In addition, the “ETAG (OD)” value in experiment [2] came to 21.8 OD. Moreover, in the experiment with DGI-2 polypeptide, the “DGI-2 (OD)” value turned out to be 1.4 OD and the DGI-2/LDH was 1.4 ratio.
For KVWGCGARRGWERLGHLNQVAAAGAPVPYPDPLEPRP [DGI-2-20F-PP-B10], the “LDH (OD)” value in experiment [1] was 0.8 OD. Besides, the “ETAG (OD)” value in experiment [2] came to 27.1 OD. In the experiment with DGI-2 polypeptide, the “DGI-2 (OD)” value was 1.9 OD and the DGI-2/LDH turned out to be 2.4 ratio.
RISVGQCGTSRCGGGRRGGGAAAGAPVPYPDPLEPRP [DGI-2-20F-PP-D1]: the “LDH (OD)” value in experiment [1] amounted to 1.1 OD. Also, the “ETAG (OD)” value in experiment [2] is 3 OD. In the experiment with DGI-2 polypeptide, the “DGI-2 (OD)” value came out at 2 OD and the DGI-2/LDH worked out at 1.9 ratio.
Consider SRELGKWGRLWQDWSSGNFSAAAGAPVPYPDPLEPRP [DGI-2-20R-3-C11], for which the “LDH (OD)” value in experiment [1] is 1 OD. Besides, the “ETAG (OD)” value in experiment [2] turned out to be 18.9 OD. Moreover, in the experiment with DGI-2 polypeptide, the “DGI-2 (OD)” value is 8.6 OD and the DGI-2/LDH was found to be 8.3 ratio.
For the molecule MGADTCMGGKMPFDQMFGAVAAAGAPVPYPDPLEPRP [DGI-2-20F-PP-E10], the “LDH (OD)” value in experiment [1] came out at 1.2 OD. Moreover, the “ETAG (OD)” value in experiment [2] was 44.6 OD. Further, in the experiment with DGI-2 polypeptide, the “DGI-2 (OD)” value came to 2 OD and the DGI-2/LDH is 1.7 ratio.
The like results for CGGWGAMWEAWVQGLNGAGCAAAGAPVPYPDPLEPRP [DGI-2-20R-3-D4] were, in that order, 1.1 OD, 18.9 OD, 8.7 OD and 8.1 ratio.
The corresponding values for TIDVARRFGYGWWDLWLDGDAAAGAPVPYPDPLEPRP [DGI-2-20R-3-C3] are 1.1 OD, 20.2 OD, 7.9 OD and 7 ratio.
The like results for GHGAGDWAAELFVCPVAFLTGFAWRAAAGAPVPYPDPLEPRP [DGI-2-20R-4-H2] were, in that order, 1.1 OD, 12.9 OD, 9.9 OD and 9.2 ratio.
Consider RKGWGVFCIPGLRFCDWSDPAAAGAPVPYPDPLEPRP [DGI-2-20R-3-B4], for which the “LDH (OD)” value in experiment [1] came to 1 OD. Further, in experiment [2], the “ETAG (OD)” value was 17.4 OD. For the same molecule, in the experiment with DGI-2 polypeptide, the “DGI-2 (OD)” value was 8.4 OD and the DGI-2/LDH came out at 8.6 ratio.
The corresponding values for FGSTAYADMLSQFRKFAMNISAAAGAPVPYPDPLEPRP [DGI-2-20F-PP-E1] are 1 OD, 33.4 OD, 1.8 OD and 1.9 ratio.
The corresponding values for WWREWVDGSLRGGGGTVLKDAAAGAPVPYPDPLEPRP [DGI-2-20R-3-A122] are 1 OD, 15.1 OD, 9.6 OD and 9.4 ratio.
Turning to LWRRWSEGQLLGDGELRGDGAAAGAPVPYPDPLEPRP [DGI-2-20R-3-B52], the “LDH (OD)” value in experiment [1] came to 1 OD. The “ETAG (OD)” value in experiment [2] is 15.8 OD. Also, in the experiment with DGI-2 polypeptide, the “DGI-2 (OD)” value worked out at 8.7 OD and the DGI-2/LDH came to 8.4 ratio.
The corresponding values for RDHRYVGWGRATFRHDQSVWAAAGAPVPYPDPLEPRP [DGI-2-20F-PP-H1] are 1.2 OD, 1.4 OD, 1.7 OD and 1.4 ratio.
Turning to GRWDGWEVCGIWGADDCASGAAAGAPVPYPDPLEPRP [DGI-2-20R-4-H1], the “LDH (OD)” value in experiment [1] was determined as 1.2 OD. Moreover, the “ETAG (OD)” value in experiment [2] is 14 OD. For the same molecule, in the experiment with DGI-2 polypeptide, the “DGI-2 (OD)” value was determined as 9.3 OD and the DGI-2/LDH was found to be 7.8 ratio.
Regarding DGRGWGAMWMRWAEGLGADIAAAGAPVPYPDPLEPRP [DGI-2-20R-4-G114], the “LDH (OD)” value in experiment [1] is 1.2 OD. Moreover, the “ETAG (OD)” value in experiment [2] turned out to be 16.5 OD. For the same molecule, in the experiment with DGI-2 polypeptide, the “DGI-2 (OD)” value was 12.9 OD and the DGI-2/LDH was found to be 11 ratio.
The like results for VWAAWVEGSLLSPRQEPVRDAAAGAPVPYPDPLEPRP [DGI-2-20R-4-G4] were, in that order, 1 OD, 13.6 OD, 10.2 OD and 9.8 ratio.
In the case of RGVNSDMPRLYICRADGQGQAAAGAPVPYPDPLEPRP [DGI-2-20F-PP-H6], the “LDH (OD)” value in experiment [1] was 0.8 OD. For the same molecule, in experiment [2], the “ETAG (OD)” value worked out at 18.9 OD. Moreover, in the experiment with DGI-2 polypeptide, the “DGI-2 (OD)” value came out at 1.6 OD and the DGI-2/LDH came out at 1.9 ratio.
The like results for GAIRLSGAAWTASRTGGRASAAAGAPVPYPDPLEPRP [DGI-2-20F-PP-E7] were, in that order, 0.9 OD, 21.5 OD, 1.6 OD and 1.8 ratio.
As for VSFAHDWGRWWYQWEVGAAAGAPVPYPDPLEPRP [DGI-2-20R-4-G22], the “LDH (OD)” value in experiment [1] stood at 1.2 OD. The “ETAG (OD)” value in experiment [2] was determined as 12.9 OD. Moreover, in the experiment with DGI-2 polypeptide, the “DGI-2 (OD)” value turned out to be 7.9 OD and the DGI-2/LDH amounted to 6.5 ratio.
For LSLEGGWMWDTKGGDGGSAQAAAGAPVPYPDPLEPRP [DGI-2-20R-4-F93], the “LDH (OD)” value in experiment [1] turned out to be 1.1 OD. Moreover, in experiment [2], the “ETAG (OD)” value was determined as 19.5 OD. In addition, in the experiment with DGI-2 polypeptide, the “DGI-2 (OD)” value turned out to be 9 OD and the DGI-2/LDH amounted to 8.4 ratio.
Consider FRMWVQSCFWGQPGTGCGEGAAAGAPVPYPDPLEPRP [DGI-2-20R-3-D2], for which the “LDH (OD)” value in experiment [1] is 1.1 OD. Further, the “ETAG (OD)” value in experiment [2] amounted to 14.3 OD. In the experiment with DGI-2 polypeptide, the “DGI-2 (OD)” value came out at 7.9 OD and the DGI-2/LDH was found to be 7.5 ratio.
As to LFSATGCALMSGFCLGSDGSAAAGAPVPYPDPLEPRP [DGI-2-20R-3-C1], the “LDH (OD)” value in experiment [1] is 1 OD. Moreover, the “ETAG (OD)” value in experiment [2] was found to be 14 OD. Also, in the experiment with DGI-2 polypeptide, the “DGI-2 (OD)” value worked out at 8.2 OD and the DGI-2/LDH came out at 8.3 ratio.
